Test results: PMC12500691

Target: Spike
Assay: SPR

Sequence of human angiotensin converting enzyme 2 (Q9BYF1 20-611): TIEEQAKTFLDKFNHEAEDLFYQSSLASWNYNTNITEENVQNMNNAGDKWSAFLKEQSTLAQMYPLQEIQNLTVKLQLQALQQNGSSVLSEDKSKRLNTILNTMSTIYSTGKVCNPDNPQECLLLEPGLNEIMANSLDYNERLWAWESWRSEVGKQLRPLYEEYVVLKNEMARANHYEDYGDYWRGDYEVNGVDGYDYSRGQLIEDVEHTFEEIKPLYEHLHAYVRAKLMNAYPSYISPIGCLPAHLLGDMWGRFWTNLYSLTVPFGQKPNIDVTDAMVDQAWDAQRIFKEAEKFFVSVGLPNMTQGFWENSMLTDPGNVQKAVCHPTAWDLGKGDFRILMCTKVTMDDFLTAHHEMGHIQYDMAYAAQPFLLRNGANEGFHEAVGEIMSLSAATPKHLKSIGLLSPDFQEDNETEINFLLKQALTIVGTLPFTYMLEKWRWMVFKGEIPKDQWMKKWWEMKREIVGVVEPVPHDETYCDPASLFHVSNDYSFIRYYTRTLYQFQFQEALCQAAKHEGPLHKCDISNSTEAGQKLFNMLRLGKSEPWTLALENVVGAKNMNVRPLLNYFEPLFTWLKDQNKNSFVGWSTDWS

human angiotensin converting enzyme 2 (from UniProt Q9BYF1-1 20-611) (receptor)
Kd: 370 nM
